Laboratory results: paper PMC9203054, “Dynamics of allosteric regulation of the phospholipase C-γ isozymes upon recruitment to membranes” (eLife, 2022)

Experiments:
[1] = molecular target: PLC-γ1 pTyr783 peptide peptide encompassing pTyr783 (Homo sapiens) (UniProt P19174); conditions: cited from earlier work
[2] = molecular target: T1, PLC-γ1 (H335A+D1165H), rat phospholipase C-γ1 residues 21–1215 (rat, UniProt P10686 21-1215, H335A | D1165H); test: SEC; PLC-γ1 variant mixed with phosphorylated kinase-inactive FGFR1K (two-fold molar excess of one partner), Superdex 200 GL 10 mm x 300 mm, 20 mM HEPES pH 7.5, 100 mM NaCl, 10 mM MgCl2, 2 mM DTT; fractions by SDS-PAGE and Coomassie; complex of PLC-γ1 (H335A) run again after 8 hr on ice; conditions: both partners purified
T1 construct: phospholipase C-γ1, rat, residues 21–1215, with H335A and D1165H; PDB 6PBC is the cited structure of the parent; also called oncogenic mutant of PLC-γ1; source: High Five (Trichoplusia ni) cells, baculovirus, purified (HisTrap IMAC, TEV cleavage, SourceQ, Superdex 200); not shown: His6, N-terminal, cleaved
T1 sequence (looked up): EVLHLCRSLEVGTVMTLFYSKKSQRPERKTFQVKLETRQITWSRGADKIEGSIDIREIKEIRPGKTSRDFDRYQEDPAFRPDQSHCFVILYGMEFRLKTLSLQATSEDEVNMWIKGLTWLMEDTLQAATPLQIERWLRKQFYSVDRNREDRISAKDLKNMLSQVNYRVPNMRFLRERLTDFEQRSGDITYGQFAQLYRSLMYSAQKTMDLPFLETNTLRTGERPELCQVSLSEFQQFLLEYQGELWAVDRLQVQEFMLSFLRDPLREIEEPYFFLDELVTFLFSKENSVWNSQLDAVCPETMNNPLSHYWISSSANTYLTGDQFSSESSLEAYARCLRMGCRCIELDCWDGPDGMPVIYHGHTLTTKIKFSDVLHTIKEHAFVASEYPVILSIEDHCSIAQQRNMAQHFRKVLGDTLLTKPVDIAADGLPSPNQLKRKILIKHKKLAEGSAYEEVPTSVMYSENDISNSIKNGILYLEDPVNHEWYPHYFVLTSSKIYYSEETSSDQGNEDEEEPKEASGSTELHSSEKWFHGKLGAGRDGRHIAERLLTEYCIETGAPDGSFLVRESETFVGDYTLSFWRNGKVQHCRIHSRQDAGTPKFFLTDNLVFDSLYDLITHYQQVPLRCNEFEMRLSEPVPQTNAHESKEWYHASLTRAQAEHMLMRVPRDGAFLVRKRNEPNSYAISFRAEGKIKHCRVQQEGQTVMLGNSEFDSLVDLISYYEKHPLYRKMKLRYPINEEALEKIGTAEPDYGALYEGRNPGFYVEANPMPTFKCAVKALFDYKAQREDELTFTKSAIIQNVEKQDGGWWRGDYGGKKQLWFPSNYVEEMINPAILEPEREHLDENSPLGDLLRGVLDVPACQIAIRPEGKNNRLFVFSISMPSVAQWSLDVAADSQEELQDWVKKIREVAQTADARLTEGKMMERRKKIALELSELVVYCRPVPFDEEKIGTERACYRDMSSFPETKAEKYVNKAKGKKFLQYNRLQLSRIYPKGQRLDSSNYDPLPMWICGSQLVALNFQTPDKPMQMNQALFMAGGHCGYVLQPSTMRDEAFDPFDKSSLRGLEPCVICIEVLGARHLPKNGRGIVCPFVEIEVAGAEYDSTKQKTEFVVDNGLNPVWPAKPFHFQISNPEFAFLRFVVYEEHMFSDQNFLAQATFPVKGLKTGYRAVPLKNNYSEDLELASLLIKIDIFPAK

[3] = molecular target: T2, PLC-γ1 (H335A), rat phospholipase C-γ1 residues 21–1215 (rat, UniProt P10686 21-1215, H335A); test: as above; conditions: both partners purified
T2 construct: phospholipase C-γ1, rat, residues 21–1215, with H335A; source: High Five (Trichoplusia ni) cells, baculovirus, purified (HisTrap IMAC, TEV cleavage, SourceQ, Superdex 200); not shown: His6, N-terminal, cleaved
T2 sequence (looked up): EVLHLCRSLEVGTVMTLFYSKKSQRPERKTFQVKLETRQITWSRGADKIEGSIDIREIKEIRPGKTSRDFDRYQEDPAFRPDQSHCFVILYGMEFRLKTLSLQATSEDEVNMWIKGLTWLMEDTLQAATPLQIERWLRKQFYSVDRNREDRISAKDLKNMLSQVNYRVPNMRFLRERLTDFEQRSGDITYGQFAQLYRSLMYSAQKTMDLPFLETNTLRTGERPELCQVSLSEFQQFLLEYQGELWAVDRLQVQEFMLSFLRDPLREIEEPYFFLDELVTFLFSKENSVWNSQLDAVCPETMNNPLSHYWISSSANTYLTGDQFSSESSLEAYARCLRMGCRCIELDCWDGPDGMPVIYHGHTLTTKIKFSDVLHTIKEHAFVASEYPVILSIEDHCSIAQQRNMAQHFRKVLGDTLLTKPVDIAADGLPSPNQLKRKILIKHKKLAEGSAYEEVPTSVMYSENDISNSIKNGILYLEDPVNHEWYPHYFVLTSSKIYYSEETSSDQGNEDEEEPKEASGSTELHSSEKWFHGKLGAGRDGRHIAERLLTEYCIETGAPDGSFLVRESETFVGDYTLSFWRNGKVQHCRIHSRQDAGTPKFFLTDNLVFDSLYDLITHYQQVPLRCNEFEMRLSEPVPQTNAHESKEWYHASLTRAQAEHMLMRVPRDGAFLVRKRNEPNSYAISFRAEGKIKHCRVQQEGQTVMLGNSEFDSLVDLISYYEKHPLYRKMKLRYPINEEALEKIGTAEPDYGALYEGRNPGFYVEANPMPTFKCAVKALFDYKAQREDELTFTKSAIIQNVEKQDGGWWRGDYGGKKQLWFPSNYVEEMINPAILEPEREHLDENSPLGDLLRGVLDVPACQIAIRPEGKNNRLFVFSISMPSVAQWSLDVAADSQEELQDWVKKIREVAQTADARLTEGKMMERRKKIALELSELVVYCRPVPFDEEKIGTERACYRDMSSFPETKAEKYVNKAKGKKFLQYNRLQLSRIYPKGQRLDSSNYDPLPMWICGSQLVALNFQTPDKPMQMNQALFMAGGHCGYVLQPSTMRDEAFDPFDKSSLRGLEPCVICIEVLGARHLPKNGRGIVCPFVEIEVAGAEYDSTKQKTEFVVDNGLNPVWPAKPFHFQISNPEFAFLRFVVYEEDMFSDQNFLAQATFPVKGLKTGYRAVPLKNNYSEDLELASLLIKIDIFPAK

[4] = molecular target: T3, wild-type PLC-γ1, rat phospholipase C-γ1 residues 21–1215 (rat, UniProt P10686 21-1215); test: cell-based or functional assay
T3 sequence (looked up): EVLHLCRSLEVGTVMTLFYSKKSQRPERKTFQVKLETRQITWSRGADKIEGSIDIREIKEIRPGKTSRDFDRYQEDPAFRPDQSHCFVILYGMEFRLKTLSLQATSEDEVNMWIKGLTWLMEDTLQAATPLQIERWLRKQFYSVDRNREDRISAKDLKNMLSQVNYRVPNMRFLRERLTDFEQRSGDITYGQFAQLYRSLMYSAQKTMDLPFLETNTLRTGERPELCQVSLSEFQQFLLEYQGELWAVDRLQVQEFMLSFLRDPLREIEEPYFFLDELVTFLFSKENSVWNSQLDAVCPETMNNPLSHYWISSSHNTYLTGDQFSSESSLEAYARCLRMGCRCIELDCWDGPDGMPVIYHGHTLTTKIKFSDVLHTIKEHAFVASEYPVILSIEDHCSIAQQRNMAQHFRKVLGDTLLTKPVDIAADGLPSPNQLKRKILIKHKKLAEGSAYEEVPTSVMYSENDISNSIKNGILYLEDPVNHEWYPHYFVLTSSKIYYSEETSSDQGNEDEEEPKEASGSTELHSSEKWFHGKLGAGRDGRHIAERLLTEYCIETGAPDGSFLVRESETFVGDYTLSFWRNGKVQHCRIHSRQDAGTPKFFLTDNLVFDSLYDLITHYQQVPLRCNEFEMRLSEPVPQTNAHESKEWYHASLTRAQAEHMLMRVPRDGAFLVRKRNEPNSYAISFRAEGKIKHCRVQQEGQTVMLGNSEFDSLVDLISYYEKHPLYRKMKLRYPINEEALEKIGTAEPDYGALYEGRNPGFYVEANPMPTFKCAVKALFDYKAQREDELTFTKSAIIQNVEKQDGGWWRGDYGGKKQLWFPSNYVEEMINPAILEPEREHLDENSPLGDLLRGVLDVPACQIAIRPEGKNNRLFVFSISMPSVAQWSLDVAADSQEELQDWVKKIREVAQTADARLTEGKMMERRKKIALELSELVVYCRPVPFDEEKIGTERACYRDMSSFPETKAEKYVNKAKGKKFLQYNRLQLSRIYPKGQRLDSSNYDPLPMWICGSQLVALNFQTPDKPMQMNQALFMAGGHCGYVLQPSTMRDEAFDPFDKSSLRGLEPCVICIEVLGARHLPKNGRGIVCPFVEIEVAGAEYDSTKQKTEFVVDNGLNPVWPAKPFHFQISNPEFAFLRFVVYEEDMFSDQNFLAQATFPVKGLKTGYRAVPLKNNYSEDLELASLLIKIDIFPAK

[5] = molecular target: T4, PLC-γ1 (D1165H), rat phospholipase C-γ1 residues 21–1215 (rat, UniProt P10686 21-1215, D1165H); test: cell-based or functional assay
T4 sequence (looked up): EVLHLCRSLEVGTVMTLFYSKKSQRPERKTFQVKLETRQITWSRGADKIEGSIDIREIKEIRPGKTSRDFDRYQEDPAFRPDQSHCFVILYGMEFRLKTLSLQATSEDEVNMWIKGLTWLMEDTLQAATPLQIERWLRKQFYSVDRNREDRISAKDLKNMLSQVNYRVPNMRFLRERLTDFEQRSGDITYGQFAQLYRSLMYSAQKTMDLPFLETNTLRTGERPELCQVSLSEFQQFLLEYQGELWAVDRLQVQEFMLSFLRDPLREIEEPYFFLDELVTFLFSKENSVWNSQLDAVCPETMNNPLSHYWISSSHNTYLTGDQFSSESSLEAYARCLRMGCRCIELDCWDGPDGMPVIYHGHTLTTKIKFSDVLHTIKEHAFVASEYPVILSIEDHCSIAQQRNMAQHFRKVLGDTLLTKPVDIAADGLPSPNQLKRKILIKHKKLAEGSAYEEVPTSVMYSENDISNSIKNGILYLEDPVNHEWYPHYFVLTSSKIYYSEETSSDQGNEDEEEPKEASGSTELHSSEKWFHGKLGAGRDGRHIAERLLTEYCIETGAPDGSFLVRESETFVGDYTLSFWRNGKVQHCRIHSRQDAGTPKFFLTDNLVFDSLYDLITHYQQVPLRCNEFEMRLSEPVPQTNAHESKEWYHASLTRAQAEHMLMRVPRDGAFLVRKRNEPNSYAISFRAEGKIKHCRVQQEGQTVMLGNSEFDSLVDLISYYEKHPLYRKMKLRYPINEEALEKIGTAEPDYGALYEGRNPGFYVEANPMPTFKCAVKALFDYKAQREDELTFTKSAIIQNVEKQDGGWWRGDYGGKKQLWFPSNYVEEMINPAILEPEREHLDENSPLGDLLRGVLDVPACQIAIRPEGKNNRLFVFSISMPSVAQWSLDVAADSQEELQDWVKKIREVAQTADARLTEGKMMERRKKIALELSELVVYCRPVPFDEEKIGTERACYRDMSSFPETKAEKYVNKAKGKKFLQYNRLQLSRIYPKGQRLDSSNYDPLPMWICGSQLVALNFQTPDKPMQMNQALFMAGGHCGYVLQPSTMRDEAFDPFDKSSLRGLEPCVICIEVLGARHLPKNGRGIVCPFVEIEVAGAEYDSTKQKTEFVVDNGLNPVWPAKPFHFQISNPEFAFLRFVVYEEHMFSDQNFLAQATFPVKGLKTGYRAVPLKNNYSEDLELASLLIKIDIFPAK

Molecule	Kd [1]	binding result [2]	binding result [3]	specific lipase activity of PLC-γ1 (10 nM) on XY-69 in PE:PIP2 (80:20) liposomes, pre-incubated with a two-fold molar excess of pFGFR1K, against PLC-γ1 alone [4]	basal lipase activity of PLC-γ1 (D1165H) (0.3 nM) on XY-69 in PE:PIP2 (80:20) liposomes with a two-fold molar excess of pFGFR1K, against PLC-γ1 (D1165H) alone [5]
PLC-γ1 cSH2 domain cSH2 (from UniProt P19174)	360 nM	–	–	–	–
kinase-inactive kinase domain of human FGFR1 (residues 458–774) phosphorylated at Tyr766 (domain or fragment, UniProt P11362 458-774, looked up, phosphotyrosine at 766, fibroblast growth factor receptor 1, human, kinase domain residues 458–774, six tyrosines changed to phenylalanine; Phosphorylation specifically at Tyr766 confirmed by LC-MS/MS; also called pFGFR1K; phosphorylated FGFR1K; source: High Five cells, baculovirus, purified (HisTrap IMAC, TEV cleavage, Superdex 200); phosphorylated in vitro with His6-tagged kinase-active FGFR1K (Y766F), separated by …) AGVSEFELPEDPRWELPRDRLVLGKPLGEGCFGQVVLAEAIGLDKDKPNRVTKVAVKMLKSDATEKDLSDLISEMEMMKMIGKHKNIINLLGACTQDGPLYVIVEYASKGNLREYLQARRPPGLEFCFNPSHNPEEQLSSKDLVSCAYQVARGMEYLASKKCIHRDLAARNVLVTEDNVMKIADFGLARDIHHIDFFKKTTNGRLPVKWMAPEALFDRIYTHQSDVWSFGVLLWEIFTLGGSPYPGVPVEELFKLLKEGHRMDKPSNCTNELFMMMRDCWHAVPSQRPTFKQLVEDLDRIVALTSNQEYLDLSMPLD	–	binds	binds	~3 fold	~2 fold
